{"source": "paper PMC5030187", "about": "(Biochemistry, 2016)", "target": "the molecule itself", "experiment": "crystal structure", "data": [{"protein": "Ag(I)-bound periplasmic sensor domain of E. coli histidine kinase CusS, CusS(39-187) (domain or fragment, UniProt P77485 39-187, looked up) VKVHFAEQDINDLKEISATLERVLNHPDETQARRLMTLEDIVSGYSNVLISLADSQGKTVYHSPGAPDIREFTRDAIPDKDAQGGEVYLLSGPTMMMPGHGHGHMEHSNWRMINLPVGPLVDGKPIYTLYIALSIDFHLHYINDLMNKL", "values": [{"measurement": "stoichiometry N", "result": 2}]}]}
